The test system of series [1] is trypsin. The series is described as follows: trypsin (0.1 μM) in PBS buffer (pH=7.4), molar ratio of trypsin to peptide 1:2000. The note with it: 37° C.
For series [2], the target named is T1, thermolysin (Bacillus thermoproteolyticus, UniProt P00800). The following applies: thermolysin 1/300 equiv. to peptides, 55 °C, DPBS, HPLC. As to the method: Analytical High-Performance Liquid Chromatography (HPLC): Analytical HPLC analysis of peptides was performed on a Jupiter 4μ Proteo 90A Phenomenex column (150×4.60 mm) using a Hitachi-Elite LaChrom L-2130 pump equipped with UV-Vis detector (Hitachi-Elite LaChrom L2420).
(§1) For enzyme-triggered cleavage experiments, the molar ratio of thermolysin to peptide was set to 1:300. Moreover, the temperature was set to 55° C. to achieve the optimal activity of thermolysin. For example, poly(PepAm21-co-DMA24) (P4, 1 mg, 0.87 μmol with respect to peptides, 300 equiv.) was dissolved in 1 ml of DPBS solution. Then thermolysin (0.1 mg, 2.9 nmol, 1 equiv.) was added into the polymer solution which was stirred in a preheated oil bath at 55° C. In the case of control experiments which involved using deactivated thermolysin, EDTA (100 equiv. to thermolysin) was utilized to capture the zinc and calcium ions, resulting in denaturing of thermolysin.

Series [3] has as its target T1, thermolysin. The note with it: for morphology change of micelles after treatment with thermolysin: TEM and DLS, spherical micelles before treatment. On the procedure:
Transmission Electron Microscope (TEM): Twenty microliters of sample were applied onto a 400 mesh carbon grids (Ted Pella, INC.). The grids were observed on a Hitachi HT 7700 microscope operating at 120 kV. The images were recorded with a slow-scan charge-coupled device (CCD) camera (Veleta 2k×2k).
Dynamic Light Scattering (DLS): DLS analysis was conducted at room temperature on a Zetasizer Nano-ZS (Malvern). The laser for DLS was at a wavelength of 633 nm.
as §1

Series [4] is described as follows: Dynamic light scattering (hydrodynamic size). It counts as physicochemical. The note with it: for hydrodynamic diameter / size by DLS: in water (DIW); for Dh: hydrodynamic diameter by DLS, photo-PISA at solids content of 15 wt. %; for Rh: hydrodynamic radius by DLS.
Description: (§2) Dynamic Light Scattering (DLS) and Zeta Potential Analysis: DLS and zeta potential analyses were conducted at room temperature on a Zetasizer Nano-ZS (Malvern). The laser for DLS was at a wavelength of 633 nm.
A short description of series [5]: Transmission electron microscopy (particle size). It counts as physicochemical. The following applies: for Rcore: estimated by TEM analysis.
Description: Dry-State Transmission Electron Microscopy (TEM): Twenty microliters of samples were applied onto a 400 mesh carbon grids (Ted Pella, INC.). The grids were observed on a Hitachi HT 7700 microscope operating at 120 kV. The images were recorded with a slow-scan charge-coupled device (CCD) camera (Veleta 2k×2k).
Series [6] concerns HeLa cells. The series is described as follows: CellTiter-Blue cell viability assay of nanoparticles (Example 2). Type of series: cell-based, human. The following applies: 72 h; for cytotoxicity in HeLa cells: 37 °C, concentration with respect to total KLA peptide content. On the procedure: Fluorescence Measurement: CellTiter-Blue® fluorescence measurements were recorded using a Perkin Elmer EnSpire multimode Plate Reader.
HeLa cells were grown in Dulbecco's modified Eagle medium (DMEM) supplemented with 10% fetal bovine serum (FBS), 1% penicillin-streptomycin. Cells were maintained at 37° C. and 5% CO2 with a relative humidity of 95%. HeLa cells were plated in 96-well plates at a density of 5000 per well and then left to attach for 24 h. Subsequently, the cells were treated with the polymers of various concentrations for the desired time followed by washing 3 times with PBS. Then CellTiter-Blue® at 10% (v/v) in complete media was added to each well and incubated for 2 h to allow the live cells to convert resazurin to fluorescent resorufin. The fluorescent signal (Excitation wavelength: 560 nm; Emission wavelength: 600 nm) was then analyzed by a plate reader. Three replicates were performed for each independent sample. 10% DMSO was used as a positive control and untreated cells in complete medium as a negative control. Viability is reported as a percentage of untreated cells.

A further series is described as follows: Zeta potential analysis. Type of series: physicochemical. The following applies: room temperature.
For series [7], the system named is HeLa cells. The series is described as follows: Flow cytometry for uptake ability in HeLa cells (Example 1). Type of series: cell-based, human. The following applies: rhodamine B-labeled, 0.25 μM with respect to dye, 24 hours. On the procedure:
Flow Cytometry: The cell uptake study was analyzed via flow cytometry using a BD FacsAria Ilu 4-Laser flow cytometer (Becton Dickinson Inc., USA). Mean fluorescence intensity and PE-A-histogram data was prepared for presentation using FlowJo v10.
For cellular uptake measurements, HeLa cells were plated in 12-well plates at a density of 1,000,000 per well and incubated for 24 hours in a 5% CO2 atmosphere at 37° C. 500 μL of 0.25 μM (with respect to rhodamine) KLA peptide, poly(KLAAm25-co-DMA75), poly(KLAAm25-co-DMA25), and poly(KLAAm10) in 10% FBS DMEM media without phenol red were incubated with the cells for 24 hours respectively. After triple washing with DPBS, 500 μL of 0.25% Trypsin-EDTA was added to each well for 10 min at 37° C. Cells were fixed with a 4% paraformaldehyde solution for 15 min at room temperature.
A general note: Flow cytometry measures light scatter and fluorescence of single cells or particles in a stream.

The test system of series [8] is HeLa cells. The series is described as follows: CellTilter-Blue cell viability assay of KLA based materials (Example 1). Also noted: species or system human. The note with it: even at 100 μM with respect to peptide, 72 hours, 37 °C. As to the method:
Hela cells were purchased from ATCC. Cells were cultured at 37° C. under 5% CO2 in phenol-red containing Dulbecco's Modified Eagle Medium (DMEM; Gibco Life Tech., cat. #11960-044) supplemented with 10% fetal bovine serum (Omega Scientific, cat. #11140-050), sodium pyruvate (Gibco Life Tech., cat. #35050-061), L-glutamine (Gibco Life Tech., cat. #35050-061), and the antibiotics penicillin/streptomycin (Corning Cellgro, cat. #30-002-C1). Cells were grown in T75 culture flasks and subcultured at ˜75-80% confluency.
The cytotoxicity of materials was assessed using the CellTilter-Blue assay. HeLa cells were plated at a density of 5000 cells per well in a 96 well plate 18 hours prior to treatment. Materials were dissolved in DPBS at the desired concentration and added to the wells along with a 10% DMSO positive control. Cells were incubated for 72 hours at 37° C. Note that the concentration of all the materials is with respect to the peptide concentration to ensure that all peptides and polymers are fairly compared with respect to their therapeutic components. The media was removed and 80 μL of new media without phenol red was added followed by adding 20 μL of CellTilter-Blue reagent. The cells were incubated for 3 hours at 37° C. The fluorescence was measured at 560 nm excitation and 590 nm emission wavelength.

Series [9] has as its system trypsin. Kind of series: Trypsin-induced cleavage (proteolytic resistance) by RP-HPLC. The note with it: isolated enzyme trypsin; trypsin 0.1 μM, 200 μM peptide, PBS pH 7.4, 37 °C; read-out: peptide cleaved by trypsin within 1 h. It counts as in vitro ADME. On the procedure: For protease-triggered cleavage experiments, the molar ratio of trypsin to peptide was set to 1:2000. Moreover, the temperature was set to 37° C. to match the body temperature. For example, poly[(KLAAm10-co-DMA30)-b-(DAAm70-co-DMA30)](NP1, 0.9 mg, 0.2 μmol with respect to peptides, 2000 equiv.) was dissolved in 1 ml of DPBS solution. […] During the cleavage, aliquots were taken for HPLC analysis at predetermined time points.

The conditions of series [10]: amine groups; cited from earlier work.
The conditions of series [11]: cited from earlier work.
Series [12] has as its system mitochondrial membrane potential of HeLa cells. The series is described as follows: Mitochondria membrane potential of HeLa cells with JC-1 probe. Type of series: cell-based, human. The following applies: 2 μM JC-1, excitation 488 nm, NP5 even after 30 min incubation. As to the method:
HeLa cells were plated in 4-well, glass bottom dishes at 30,000 cells per well in 500 μL medium. […] The cells were stained with 2 μM of JC-1 at 37° C. for 15 minutes, washed with PBS to remove any membrane-bound, non-internalized fluorophores, and returned to complete medium. For the positive control group, the cells were incubated with 50 μM CCCP and 2 μM of JC-1 probe in DPBS solution simultaneously for 15 min. Before the confocal observation, 1 drop of Hoechst 33342 dye was added to stain the nuclei. Confocal microscope was employed to observe the fluorescence of JC-1 monomer, J-aggregates and Hoechst dye.

Series [13] relates to thermolysin. The series is described as follows: thermolysin in DPBS solution, molar ratio of thermolysin to peptide 1:300. The following applies: 55° C.

T1 sequence (P00800 233-548): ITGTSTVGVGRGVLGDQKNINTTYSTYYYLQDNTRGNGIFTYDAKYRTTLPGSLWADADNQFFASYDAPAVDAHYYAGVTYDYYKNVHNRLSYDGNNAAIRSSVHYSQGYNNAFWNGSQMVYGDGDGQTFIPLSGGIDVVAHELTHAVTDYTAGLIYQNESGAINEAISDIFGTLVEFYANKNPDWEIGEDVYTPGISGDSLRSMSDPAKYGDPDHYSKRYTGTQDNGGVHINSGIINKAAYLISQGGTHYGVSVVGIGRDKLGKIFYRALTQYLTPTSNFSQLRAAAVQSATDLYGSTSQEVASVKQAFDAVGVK
Description for Zeta potential analysis: as §2

With KLAKLAKKLAKLAK, the fragment found entry with trypsin [1] is recorded as “LAK”.

In the case of poly(PepAm6-co-DMA7) [P1], the “time within which thermolysin-induced peptide cleavage was complete” value on thermolysin [2] is not above 1 h.

For the molecule PMMA90-b-poly(PepAm9-co-DMA30) [P7], on thermolysin [3], the “morphology change of micelles after treatment with thermolysin” value (“morphology change of micelles” for short) is reported as “transition from spherical micelle to fused worm micelles”.

Turning to PnBA200-b-poly(PepAm36-co-DMA123) [P9], the “morphology change of micelles” value at thermolysin [3] is “transition from spherical micelle to a mixture of micelles and fiber structure”.

Regarding PMMA90-b-poly(PepAm21-co-DMA63) [P8], the “morphology change of micelles” value on thermolysin [3] is “phase transition into a worm-like phase”. The “change in particle diameter with deactivated thermolysin” value on thermolysin [3] (thermolysin pretreated with ethylenediaminetetraacetic acid, same cleavage conditions, DLS) was “no change in diameter”. Also, the “hydrodynamic diameter / size by DLS” value in series [4] is on record as 28 nm. In addition, the “diameter / average size by TEM” value in series [5] (dry-state TEM) is on record as 24 nm.

On to “poly[(KLAAm10-co-DMA30)-b-(DAAm280-co-DMA120)] (KLAKLAKKLAKLAK) [NP3, KLA peptide brush polymer nanoparticle]”, for which the “cytotoxicity in HeLa cells” value in the series on HeLa cells [6] was “dose-dependent cytotoxicity”. In series [4], this molecule displayed a Dh of 105 nm and a Rh of 52 nm. The Rcore in series [5] is on record as 46 nm. This molecule displayed a Zeta potential in the series “Zeta potential analysis” of 48 mV.

As for “poly[(KLAAm10-co-DMA10)-b-(DAAm140-co-DMA60)] (KLAKLAKKLAKLAK) [NP4, KLA peptide brush polymer nanoparticle]”, the Dh in series [4] was 64 nm.

On to poly(KLAAm10), for which the “cellular uptake by flow cytometry” value with HeLa cells [7] is “clearly outperformed more sparsely grafted polypeptide brushes”.

What is called pKa is the negative logarithm of the acid dissociation constant. Regarding `C=CC(=O)NCCCCCC(=O)N[C@@H](CCCCN)C(=O)N[C@@H](CC(C)C)C(=O)N[C@@H](C)C(=O)N[C@@H](CCCCN)C(=O)N[C@@H](CC(C)C)C(=O)N[C@@H](C)C(=O)N[C@@H](CCCCN)C(=O)N[C@@H](CCCCN)C(=O)N[C@@H](CC(C)C)C(=O)N[C@@H](C)C(=O)N[C@@H](CCCCN)C(=O)N[C@@H](CC(C)C)C(=O)N[C@@H](C)C(=O)N[C@@H](CCCCN)C(N)=O` [KLAAm], the “cytotoxicity to HeLa cells” value in the series with HeLa cells [8] is recorded as “did not exhibit cytotoxicity”. For the same molecule, in the series on trypsin [9], the metabolised at 1 h, 200 μM amounted to 100%. Further, the pKa in series [10] is 9. Also, in series [11], the “maximum concentration in water” value was “about 100 mM”.

With poly(KLAAm25-co-DMA25), in the series on HeLa cells [7], the “cellular uptake by flow cytometry” value was “clearly outperformed more sparsely grafted polypeptide brushes”.

“poly[(KLAAm10-co-DMA30)-b-(DAAm70-co-DMA30)] (KLAKLAKKLAKLAK) [NP1, KLA peptide brush polymer nanoparticle]”: in series [4], the Dh came to 36 nm and the Rh is 18 nm. Further, the Rcore in series [5] is listed as 13 nm. The molecule also gave a Zeta potential in “Zeta potential analysis” of 47 mV.

As to “poly[(KLAAm10-co-DMA10)-b-(DAAm280-co-DMA120)] (KLAKLAKKLAKLAK) [NP5, KLA peptide brush polymer nanoparticle]”, the “cytotoxicity in HeLa cells” value in the series on HeLa cells [6] is on record as “dose-dependent cytotoxicity”. Also, the “toxicity compared between nanoparticles” value with HeLa cells [6] (HeLa cells) is recorded as “significantly higher than NP3”. Also, the “red fluorescence of JC-1 J-aggregates (mitochondrial membrane potential)” value in [12] is “almost no red emission”. Moreover, the Dh in series [4] worked out at 92 nm.

For the molecule `CC(C)C[C@H](NC(=O)[C@H](CCCCN)NC(=O)[C@H](C)NC(=O)[C@H](CC(C)C)NC(=O)[C@H](CCCCN)NC(=O)[C@H](CCCCN)NC(=O)[C@H](C)NC(=O)[C@H](CC(C)C)NC(=O)[C@H](CCCCN)NC(=O)[C@H](C)NC(=O)[C@H](CC(C)C)NC(=O)[C@@H](N)CCCCN)C(=O)N[C@@H](C)C(=O)N[C@@H](CCCCN)C(N)=O` [KLA peptide, KLAKLAKKLAKLAK, reference compound], the “cytotoxicity to HeLa cells” value in the series with HeLa cells [8] is listed as “did not exhibit cytotoxicity”. Besides, the metabolised at 1 h, 200 μM in the series with trypsin [9] stood at 100%.

With poly(PepAm21-co-DMA71) [P4], the “time within which thermolysin-induced peptide cleavage was complete” value at thermolysin [2] was not above 1 h. Also, the “hydrodynamic diameter / size by DLS” value in [4] is less than 10 nm.

On to GPLGLAGG, for which the cleaved bond result in the series with thermolysin [13] is given as “glycine (G)-leucine (L)”.

As to “NP2: KLA peptide brush polymer nanoparticle: shell KLAAm 10, DMA 30; core DAAm 140, DMA 60 (KLAKLAKKLAKLAK)”, in [4], the Dh was 62 nm and the Rh was determined as 31 nm. Also, in series [5], the Rcore was 28 nm. The molecule further gave a Zeta potential in “Zeta potential analysis” of 56 mV.

The values above are taken from patent US12516145B2 (priority 2019, dated 2026).
